Measured values published in the supplement of paper PMC11811203.

B1: THAP1; numbered along this chain (parent)
chain: MVQSCSAYGCKNRYDKDKPVSFHKFPLTRPSLCKEWEAAVRRKNFKPTKYSSICSEHFTPDCFKRECNNKLLKENAVPTIFLCTEPHDKKEDLLEPQEQLPPPPLPPPVSQVDAAIGLLMPPLQTPVNLSVFCDHNYTVEDTMHQRKRIHQLEQQVEKLRKKLKTAQQRCRRQERQLEKLKEVVHFQKEKDDVSERGYVILPNDYFEIVEVPA

Variants of: B1
Assay: THAP1 transcriptional activity (GFP+/GFP- enrichment relative to wild-type constructs) (ratio to WT); higher = more THAP1 activity (PSMB5 reporter activation)
Details: with PSMB5 promoter-GFP reporter
Summary of the method: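 A site-saturation library of human THAP1 (residues 2–213, each changed to all 20 amino acids) was transduced by lentivirus at MOI ~0.3, in duplicate, into THAP1-knockout HEK-293T cells carrying mClover3 knocked in at endogenous PSMB5. After five days, BFP+ cells were sorted into GFP-dim and GFP-bright bins, and variants were counted by Illumina sequencing of genomic DNA amplicons. Activity is the replicate-mean bright/dim read fold change divided by the mean of wild-type synonymous constructs.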

In order of falling THAP1 transcriptional activity:
1. F186Q  2.25
2. F186C  2.01
3. F186S  1.93
4. H185K  1.87
5. F186A  1.67
6. F186E  1.64
7. F186G  1.63
8. E178K  1.59
9. F186K  1.59
10. H185A  1.58
11. E182K  1.56
12. V184A  1.55
13. Q176K  1.54
14. V183Q  1.52
15. E174R  1.48
16. V183S  1.48
17. F186P  1.48
18. K190I  1.48
19. E178S  1.45
20. Q187S  1.45
21. F186D  1.4
22. F186Y  1.36
23. E182D  1.34
24. K188R  1.34
25. E189L  1.33
26. F186M  1.32
27. H185R  1.31
28. F186L  1.31
29. F186R  1.31
30. V184G  1.29
31. Q173V  1.27
32. E174Q  1.26
33. E178T  1.26
34. F186H  1.25
35. V184M  1.22
36. E189A  1.22
37. F186T  1.21
38. Q187A  1.21
39. E189D  1.2
40. V184N  1.19
41. E174C  1.18
42. R175K  1.17
43. V183N  1.17
44. E189W  1.16
45. K188A  1.14
46. V183A  1.11
47. V184D  1.11
48. F186V  1.11
49. E189Q  1.11
50. Q173T  1.1
51. Q176R  1.1
52. V184T  1.1
53. F186W  1.1
54. E189K  1.1
55. V184Q  1.09
56. E189M  1.09
57. F186I  1.08
58. E189T  1.08
59. H185T  1.07
60. K190C  1.06
61. K188G  1.05
62. E182R  1.04
63. V183C  1.04
64. E174L  1.03
65. Q187R  1.03
66. K188N  1.03
67. E189S  1.03
68. E178L  1.02
69. V183T  1.02
70. H185S  1.02
71. H185N  1.01
72. V184H  0.994
73. Q187T  0.99
74. E178A  0.976
75. K181R  0.964
76. E178H  0.957
77. V183D  0.954
78. K188Q  0.954
79. H185C  0.951
80. E189H  0.949
81. V183Y  0.941
82. K188S  0.937
83. E182S  0.933
84. E178C  0.927
85. H185G  0.927
86. L177I  0.925
87. V184L  0.923
88. V184F  0.913
89. Q187C  0.911
90. H185Y  0.905
91. K190E  0.903
92. V184K  0.901
93. K190P  0.901
94. C170L  0.894
95. Q173A  0.888
96. V183M  0.882
97. E189R  0.881
98. E189N  0.878
99. K190G  0.878
100. V183E  0.876
101. Q187G  0.874
102. E182A  0.871
103. L180M  0.868
104. K190F  0.86
105. K188I  0.858
106. Q187H  0.853
107. E189F  0.853
108. E174S  0.847
109. V183R  0.844
110. E174T  0.836
111. K190L  0.835
112. E178I  0.832
113. V184Y  0.826
114. K188V  0.826
115. C170M  0.824
116. Q187E  0.824
117. E174H  0.817
118. E182T  0.811
119. Q187Y  0.809
120. L180I  0.806
121. V183W  0.798
122. E178G  0.795
123. E178M  0.795
124. E174K  0.794
125. K188C  0.792
126. Q187D  0.783
127. Q187F  0.78
128. E182P  0.778
129. E189P  0.761
130. H185P  0.76
131. V183L  0.753
132. V183G  0.742
133. V184C  0.742
134. E182H  0.73
135. C170N  0.728
136. K179A  0.727
137. Q187N  0.727
138. E182G  0.726
139. K188L  0.724
140. H185M  0.723
141. V183F  0.721
142. Q187K  0.719
143. E174D  0.712
144. K190H  0.708
145. Q176L  0.707
146. C170Y  0.702
147. E178W  0.7
148. R175I  0.699
149. E182V  0.698
150. Q173H  0.693
151. R175L  0.692
152. Q187I  0.687
153. R172K  0.684
154. K188Y  0.683
155. Q187L  0.681
156. V183P  0.678
157. E178D  0.665
158. C170A  0.663
159. K179Y  0.661
160. E182W  0.66
161. E182C  0.657
162. V184E  0.657
163. K179Q  0.656
164. R175Q  0.653
165. Q187V  0.652
166. K188H  0.646
167. K190D  0.645
168. K179I  0.633
169. E178Y  0.632
170. R171K  0.627
171. R175Y  0.619
172. V184P  0.617
173. H185I  0.617
174. K179H  0.616
175. Q173L  0.611
176. C170R  0.609
177. K188M  0.605
178. C170Q  0.604
179. Q173S  0.592
180. V184W  0.59
181. K181E  0.582
182. Q173R  0.58
183. L180V  0.58
184. E182Y  0.58
185. H185V  0.579
186. L180W  0.575
187. E174V  0.568
188. E178V  0.568
189. K179T  0.568
190. Q187W  0.568
191. Q176A  0.567
192. E174F  0.564
193. Q176I  0.557
194. K190M  0.557
195. R175E  0.554
196. Q176H  0.546
197. K179L  0.546
198. K181M  0.542
199. Q176C  0.538
200. E174G  0.535
201. R169H  0.531
202. K181G  0.53
203. E189V  0.53
204. E178F  0.529
205. L177Y  0.528
206. H185W  0.528
207. V183H  0.519
208. Q176N  0.518
209. K181Q  0.514
210. K181N  0.511
211. K179N  0.51
212. R175W  0.507
213. R175A  0.506
214. K188E  0.506
215. R175C  0.503
216. Q176V  0.499
217. R175H  0.492
218. K181T  0.491
219. L180A  0.484
220. L180S  0.482
221. K181H  0.478
222. L180N  0.473
223. H185F  0.469
224. E182F  0.467
225. K179M  0.465
226. R172H  0.458
227. C170T  0.457
228. R169L  0.45
229. L180Y  0.439
230. Q176S  0.434
231. L180C  0.43
232. R172S  0.428
233. E182I  0.428
234. C170S  0.425
235. Q173F  0.425
236. K179F  0.421
237. K181L  0.421
238. K188P  0.419
239. K181W  0.418
240. L180R  0.417
241. C170H  0.411
242. R172N  0.41
243. Q176D  0.41
244. L177F  0.408
245. L177V  0.404
246. K179D  0.403
247. K179G  0.4
248. L180Q  0.399
249. R172A  0.396
250. E178N  0.394
251. R169M  0.388
252. R175G  0.388
253. K179V  0.388
254. Q173G  0.386
255. Q187P  0.385
256. R175T  0.382
257. R169Q  0.379
258. R175N  0.379
259. L177C  0.369
260. L180K  0.367
261. R172Q  0.364
262. K179W  0.364
263. L177N  0.361
264. R171M  0.36
265. K181Y  0.36
266. R171I  0.359
267. H185L  0.359
268. C170G  0.353
269. C170F  0.35
270. R169V  0.347
271. R175D  0.345
272. R171H  0.344
273. R172E  0.34
274. R172I  0.34
275. K179C  0.34
276. R175F  0.33
277. R172L  0.328
278. L177K  0.328
279. L177H  0.327
280. K181V  0.316
281. R171L  0.314
282. L177R  0.3
283. K181S  0.298
284. K181C  0.297
285. K181D  0.296
286. R172V  0.288
287. R171G  0.285
288. Q173W  0.284
289. L177A  0.268
290. R172W  0.267
291. L177W  0.263
292. R169S  0.262
293. C170K  0.26
294. Q176P  0.259
295. R171W  0.258
296. R171C  0.256
297. L180D  0.256
298. L177T  0.255
299. R172Y  0.252
300. R172F  0.247
301. R169F  0.246
302. R172P  0.241
303. R172G  0.234
304. L177D  0.233
305. Q173D  0.232
306. R171N  0.229
307. R171D  0.228
308. E178P  0.226
309. Q176W  0.223
310. R171E  0.218
311. K179P  0.213
312. C170W  0.208
313. L177S  0.206
314. R172D  0.201
315. C170E  0.194
316. L177P  0.192
317. L177Q  0.191
318. E174P  0.189
319. Q176G  0.189
320. R171P  0.186
321. R169Y  0.183
322. R169G  0.181
323. C170D  0.173
324. R171S  0.173
325. R171T  0.172
326. L180P  0.166
327. R172C  0.157
328. K181P  0.152
329. C170P  0.15
330. Q173E  0.149
331. R171V  0.142
332. R169W  0.138
333. R169P  0.132
334. R175P  0.102
